Experimental data as given in patent US20120034215A1 (Daiichi Sankyo, published 2012).
Where a chain is given by its changes, count along the chain named.

T1: cynomolgus monkey MST1R with N-terminal Flag tag, expressed on HEK293T cells (cynomolgus monkey, UniProt Q04912 27-1400 (human entry))
T1 construct: ORF cloned excluding the signal peptide region; also called cynomolgus MST1R; not shown: N-terminal Flag tag from vector pFLAG-myc-CMV-19 (Sigma)
T1 chain: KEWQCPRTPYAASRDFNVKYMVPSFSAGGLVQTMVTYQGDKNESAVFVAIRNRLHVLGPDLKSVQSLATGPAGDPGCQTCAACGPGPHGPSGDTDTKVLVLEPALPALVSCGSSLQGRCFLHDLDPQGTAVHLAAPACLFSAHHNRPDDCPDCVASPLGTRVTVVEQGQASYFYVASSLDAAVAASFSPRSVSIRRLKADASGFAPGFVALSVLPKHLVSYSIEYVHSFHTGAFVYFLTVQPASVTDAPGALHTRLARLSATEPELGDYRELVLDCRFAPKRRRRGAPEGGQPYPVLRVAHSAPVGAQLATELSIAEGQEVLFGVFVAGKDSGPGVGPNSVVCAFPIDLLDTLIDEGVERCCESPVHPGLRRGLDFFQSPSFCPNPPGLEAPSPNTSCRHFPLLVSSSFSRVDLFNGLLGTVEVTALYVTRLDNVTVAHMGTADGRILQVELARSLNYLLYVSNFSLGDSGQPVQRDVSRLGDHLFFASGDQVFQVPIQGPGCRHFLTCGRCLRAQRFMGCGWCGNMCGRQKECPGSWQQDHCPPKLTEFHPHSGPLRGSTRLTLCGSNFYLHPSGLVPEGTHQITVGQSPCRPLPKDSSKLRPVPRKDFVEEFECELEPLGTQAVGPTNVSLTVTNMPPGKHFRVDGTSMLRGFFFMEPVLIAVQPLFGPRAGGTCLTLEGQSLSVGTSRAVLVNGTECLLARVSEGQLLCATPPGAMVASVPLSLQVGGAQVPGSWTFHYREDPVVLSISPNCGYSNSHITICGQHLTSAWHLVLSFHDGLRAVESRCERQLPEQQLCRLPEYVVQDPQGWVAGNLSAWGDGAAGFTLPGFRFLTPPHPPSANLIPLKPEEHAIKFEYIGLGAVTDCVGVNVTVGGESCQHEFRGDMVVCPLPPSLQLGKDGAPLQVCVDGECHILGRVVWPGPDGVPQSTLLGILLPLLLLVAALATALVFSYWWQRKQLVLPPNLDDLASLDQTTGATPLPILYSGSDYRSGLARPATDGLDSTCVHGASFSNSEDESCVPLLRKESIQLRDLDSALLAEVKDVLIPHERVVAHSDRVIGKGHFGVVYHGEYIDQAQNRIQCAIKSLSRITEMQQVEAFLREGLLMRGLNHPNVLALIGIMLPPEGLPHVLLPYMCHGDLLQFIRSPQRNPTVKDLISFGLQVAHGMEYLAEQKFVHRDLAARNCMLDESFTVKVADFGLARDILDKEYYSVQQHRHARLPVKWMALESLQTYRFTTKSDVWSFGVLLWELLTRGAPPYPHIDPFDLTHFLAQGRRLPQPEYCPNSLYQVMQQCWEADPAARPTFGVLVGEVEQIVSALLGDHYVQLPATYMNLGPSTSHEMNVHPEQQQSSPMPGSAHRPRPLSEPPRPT

B1: MOR07923 (human IgG1) (antibody, V domains shown)
VH: QVQLVESGGGLVQPGGSLRLSCAASGFTFNSYSMSWVRQAPGKGLEWVSYISSRSSTTYYADSVKGRFTISRDNSKNTLYLQMNSLRAEDTAVYYCARGYFHGMDYWGQGTLVTVSS
VL: DIVLTQSPATLSLSPGERATLSCRASQSVSFDYLGWYQQKPGQAPRLLIYGASNRATGVPARFSGSGSGTDFTLTISSLEPEDFATYYCFQYLIVPFTFGQGTKVEIKR
B2: MOR07924 (human IgG1) (antibody, V domains shown)
VH: B1 VH
VL: B1 VL with F90Q, L93N, V95N
B3: MOR07925 (human IgG1) (antibody, V domains shown)
VH: B1 VH
VL: B1 VL with F90L, L93F, I94N, V95P, F97H
B4: MOR07692 (human IgG1) (antibody, V domains shown)
VH: B1 VH
VL: B1 VL with F90Q, L93Y, I94N, V95M, F97Y
B5: MOR07926 (human IgG1) (antibody, V domains shown)
VH: B1 VH
VL: B1 VL with Y92A, V95M

What follows are binders tested against MST1R on cells (293alpha cells transfected with pcDNA-DEST40 MST1R; endogenous on PC3, T-47D and BxPC-3 cells) (human, UniProt Q04912 25-1400) (assay: cell-based or functional assay).

Q: Which “Reporter assay IC50 (ng/ml); Elk1 luciferase reporter gene assay in the presence of 100 ng/ml MSP” value (from here on “Reporter assay IC50 (ng/ml)”) does the source give for B1 here?
A: 9 ng/mL

Q: For B2, which “Reporter assay IC50 (ng/ml)” value is on record?
A: 15.7 ng/mL

Q: How did the “Reporter assay IC50 (ng/ml)” value turn out when B3 was run?
A: 5.9 ng/mL

Q: Which “Reporter assay IC50 (ng/ml)” value does the source give for B4 here?
A: 4.4 ng/mL

Q: B5 was tested. Which “Reporter assay IC50 (ng/ml)” value did it give?
A: 11.4 ng/mL

Biological target: T1, cynomolgus monkey MST1R with N-terminal …
Assay: flow cytometry on transfected HEK293T cells, 2 ug/ml IgG1
Protocol: Cells (5×10⁵ cells/well) were incubated with Fab or IgG antibodies at the indicated concentrations in 50 μl FACS buffer (PBS, 5% FCS) for 60 min at 4° C. in round bottom 96-well culture plates (Corning). Cells were washed twice and then incubated with Fluorescein Isothiocyanate (FITC) conjugated detection antibody for 30 min at 4° C. Cells were washed again, resuspended in 0.3 ml FACS buffer and then analyzed by flow cytometry in a Cytomics FC500 (Beckman Coulter, Inc.). Data were analysed via FlowJo software (Tomy digital biology Co., Ltd.). Polyclonal goat anti-hMSP R IgG (R&D systems) or anti-FLAG M2 antibody (Sigma) was used as a positive control and MOR03207 (anti-lysozyme) antibody was used as a negative control.
FACS-analysis of MST1R ortholog-expressing cells: Human MST1R (cDNA nucleotide sequence is shown as GenBank Accession No: NM_{—}002447.2), cynomolgus monkey MST1R and mouse MST1R (cDNA nucleotide sequence is shown as GeneBank Accession No: NM_{—}009074.1) expression vector containing N-terminal Flag tag (pFLAG-myc-CMV-19, Sigma) were constructed. cDNA encoding cynomolgus monkey MST1R was amplified by PCR using cynomolgus monkey stomach cDNA as a template with forward and reverse primers having nucleotide sequences of SEQ ID NO: 34 and 35, respectively. By sequencing analysis of PCR product, the cynomolgus MST1R ORF nucleotide sequence was identified as shown in SEQ ID NO: 36. The corresponding amino acid sequence was shown in SEQ ID NO: 37. Then human, cynomolgus monkey and mouse MST1R ORF cDNA, excluding signal peptide regions, were amplified using respective forward and reverse primers having nucleotide sequences of SEQ ID NO: 38 and 39 (human), 40 and 41 (cynomolgus monkey), and 42 and 43 (mouse) with appropriate cloning sites and then cloned into pFLAG-myc-CMV-19. An amplified human MST1R fragment encodes amino acids corresponding to GenBank Accession No: NP_{—}002438.2 (SEQ ID NO: 45). A Mouse MST1R fragment encodes amino acids corresponding to GenBank Accession No: NP_{—}033100.1 (SEQ ID NO: 47) except for those amino acid differences at positions: 688 (Leu to Pro), 713 (Ile to Val), 714 (Ala to Gly) and 719 (Ala to Val). These expression vectors were transfected into HEK293T cells. For FACS-analysis, cells were incubated with 2 μg/ml primary antibodies followed by incubation with FITC-labeled secondary antibody as described above.

Q: Does B1 bind?
A: binds

Q: Does B2 bind?
A: binds

Q: Does B3 bind?
A: binds

Q: Does B4 bind?
A: binds

Q: Does B5 bind?
A: binds
